Laboratory results from PMC6934851, “Yeast R2TP Interacts with Extended Termini of Client Protein Nop58p” (Scientific Reports, 2019).

T1: Maltose Binding Protein (MBP)-fused Nop58p_447 (S. cerevisiae, UniProt Q12499 1-447)
T1 chain: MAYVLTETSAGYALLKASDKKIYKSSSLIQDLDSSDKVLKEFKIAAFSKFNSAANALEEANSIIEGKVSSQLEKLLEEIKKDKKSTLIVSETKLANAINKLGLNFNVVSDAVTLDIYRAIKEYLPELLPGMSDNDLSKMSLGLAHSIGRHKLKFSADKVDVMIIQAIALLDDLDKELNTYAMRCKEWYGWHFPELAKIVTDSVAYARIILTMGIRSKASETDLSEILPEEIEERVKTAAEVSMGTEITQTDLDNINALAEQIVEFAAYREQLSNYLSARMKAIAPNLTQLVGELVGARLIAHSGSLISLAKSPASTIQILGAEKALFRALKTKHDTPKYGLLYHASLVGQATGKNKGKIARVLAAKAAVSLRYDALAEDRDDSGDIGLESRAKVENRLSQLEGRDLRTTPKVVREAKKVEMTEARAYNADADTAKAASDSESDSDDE

B1: Maltose Binding Protein (MBP)-fused Nop58p_447 (domain or fragment, S. cerevisiae, UniProt Q12499 1-447, looked up)
chain: MAYVLTETSAGYALLKASDKKIYKSSSLIQDLDSSDKVLKEFKIAAFSKFNSAANALEEANSIIEGKVSSQLEKLLEEIKKDKKSTLIVSETKLANAINKLGLNFNVVSDAVTLDIYRAIKEYLPELLPGMSDNDLSKMSLGLAHSIGRHKLKFSADKVDVMIIQAIALLDDLDKELNTYAMRCKEWYGWHFPELAKIVTDSVAYARIILTMGIRSKASETDLSEILPEEIEERVKTAAEVSMGTEITQTDLDNINALAEQIVEFAAYREQLSNYLSARMKAIAPNLTQLVGELVGARLIAHSGSLISLAKSPASTIQILGAEKALFRALKTKHDTPKYGLLYHASLVGQATGKNKGKIARVLAAKAAVSLRYDALAEDRDDSGDIGLESRAKVENRLSQLEGRDLRTTPKVVREAKKVEMTEARAYNADADTAKAASDSESDSDDE
notes: In the cross-linking and cryo-EM sections the text often calls this MBP fusion simply Nop58p_447; also called MBP-Nop58p_447; MBP-Nop58_447; source: E. coli, purified (amylose, monoQ, gel filtration); not shown: MBP, N-terminal, kept

Key:
[1] = biological target: T2, Rvb1p (yeast, UniProt Q03940 1-463); assay: cross-linking; co-purified MBP-Nop58p_447-R2TP complex, BS3-d0/BS3-d4 for 30 min, SDS-PAGE, trypsin, mass spectrometry; conditions: both partners purified
T2 construct: Rvb1p, yeast AAA+ ATPase; Subunit as it stood in the MBP-Nop58p_447-R2TP complex; also called Ruv1p; source: purified as Rvb1/2p heterocomplex, within reconstituted R2TP
T2 sequence (Q03940 whole entry): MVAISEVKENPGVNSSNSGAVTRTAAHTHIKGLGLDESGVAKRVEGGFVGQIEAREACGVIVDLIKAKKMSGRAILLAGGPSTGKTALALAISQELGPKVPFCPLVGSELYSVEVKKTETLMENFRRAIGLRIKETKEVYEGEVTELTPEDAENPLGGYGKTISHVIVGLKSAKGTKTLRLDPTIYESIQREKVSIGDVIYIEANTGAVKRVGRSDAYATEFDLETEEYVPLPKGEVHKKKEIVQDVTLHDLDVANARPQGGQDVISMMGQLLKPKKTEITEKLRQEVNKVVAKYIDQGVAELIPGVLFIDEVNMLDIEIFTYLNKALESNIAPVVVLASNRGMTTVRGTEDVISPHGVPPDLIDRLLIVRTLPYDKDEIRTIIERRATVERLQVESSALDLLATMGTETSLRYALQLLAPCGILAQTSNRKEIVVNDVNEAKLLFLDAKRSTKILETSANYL

[2] = biological target: T3, Rvb2p (yeast, UniProt Q12464 1-471); assay: as above; conditions: both partners purified
T3 construct: Rvb2p, yeast AAA+ ATPase; Subunit as it stood in the MBP-Nop58p_447-R2TP complex; also called Ruv2p; source: purified as Rvb1/2p heterocomplex, within reconstituted R2TP
T3 sequence (Q12464 whole entry): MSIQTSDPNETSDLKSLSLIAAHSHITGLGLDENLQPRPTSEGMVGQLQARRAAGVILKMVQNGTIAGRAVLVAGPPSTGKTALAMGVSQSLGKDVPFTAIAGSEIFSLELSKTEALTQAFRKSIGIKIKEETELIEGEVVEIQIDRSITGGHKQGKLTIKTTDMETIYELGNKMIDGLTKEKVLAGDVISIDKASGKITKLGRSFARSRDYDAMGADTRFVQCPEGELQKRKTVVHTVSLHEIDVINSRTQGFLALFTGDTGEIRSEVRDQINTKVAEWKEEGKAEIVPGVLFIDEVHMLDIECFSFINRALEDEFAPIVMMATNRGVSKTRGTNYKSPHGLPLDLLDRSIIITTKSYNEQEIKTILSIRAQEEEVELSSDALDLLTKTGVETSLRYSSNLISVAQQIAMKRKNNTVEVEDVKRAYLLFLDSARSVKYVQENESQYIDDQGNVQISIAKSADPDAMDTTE

[3] = biological target: T1, Maltose Binding Protein (MBP)-fused …; assay: ITC
[4] = biological target: B1; assay: ITC; MBP-Nop58p in the sample cell (MBP-Nop58p_447 at 7.8 μM), Pih1p-Tah1p in the injector at 99.6 μM; 25 °C; 25 mM HEPES, 150 mM NaCl, 5% glycerol, 5 mM beta-ME, pH 7.5; One Site model; conditions: both partners purified
[5] = biological target: B1; assay: cross-linking; co-purified MBP-Nop58p_447-R2TP complex, BS3-d0/BS3-d4 for 30 min, SDS-PAGE, trypsin, mass spectrometry; conditions: both partners purified

binding result [1] | binding result [2] | Kd [3] [nM] | stoichiometry N [4] | binding result [5] | Binder
binds | binds |  |  |  | B1
 |  | 440 | 1 |  | Pih1p-Tah1p heterodimer (complex, yeast, Tah1p, yeast, YCR060W; also called His-Pih1p-Tah1p; source: purified) chain 1: MADFLLRPIKQRHRNEDKYVSVDAADGSVSKIEPIADFVIKTKLLSANGPEKLQDGRKVFINVCHSPLVPKPEVDFNARIVFPLIIQNEWEIPIITSCYRMDHDKKGQECYVWDCCINSDCSRWICDDIQLREILVEWCLESCEIRDSVVLCRDRIAFPKMKKKGAELPALEVLNDELHQDYKAKMHKIIEEEAGDPMSILRGRNDDGDDNNDPDDGTLPPLFPIENKISGAKIEEIDKNEIAHRNLKQAPAPAPAPHEQQEDVPEYEVKMKRFKGAAYKLRILIENKAPNSKPDRFSPSYNFAENILYINGKLSIPLPRDIVVNAADIKIFHIRKERTLYIYI chain 2: MSQFEKQKEQGNSLFKQGLYREAVHCYDQLITAQPQNPVGYSNKAMALIKLGEYTQAIQMCQQGLRYTSTAEHVAIRSKLQYRLELAQGAVGSVQIPVVEVDELPEGYDRS
binds |  |  |  | binds | Pih1p (natural protein, yeast, UniProt P38768 1-344, looked up, Subunit as it stood in the MBP-Nop58p_447-R2TP complex; source: purified as His-Pih1p-Tah1p, within reconstituted R2TP) MADFLLRPIKQRHRNEDKYVSVDAADGSVSKIEPIADFVIKTKLLSANGPEKLQDGRKVFINVCHSPLVPKPEVDFNARIVFPLIIQNEWEIPIITSCYRMDHDKKGQECYVWDCCINSDCSRWICDDIQLREILVEWCLESCEIRDSVVLCRDRIAFPKMKKKGAELPALEVLNDELHQDYKAKMHKIIEEEAGDPMSILRGRNDDGDDNNDPDDGTLPPLFPIENKISGAKIEEIDKNEIAHRNLKQAPAPAPAPHEQQEDVPEYEVKMKRFKGAAYKLRILIENKAPNSKPDRFSPSYNFAENILYINGKLSIPLPRDIVVNAADIKIFHIRKERTLYIYI
